Test results from patent US20220251227A1 (Eli Lilly, published 2022).
Blank lines part the entries; values can stand above or below the binder they belong to.

What was measured:
[1] = target: T1, Human serum albumin (human, UniProt P02768 25-609); assay: SPR, Biacore 8K, albumin immobilized on CM5, 25 C, 1:1 model
T1 construct: Bought protein, immobilized on a CM5 chip by amine coupling; also called Human SA
Protocol: (§1) Binding of Antibody I and Antibody II to various serum albumins is carried out on Biacore 8K instrument. The immobilization of the serum albumin to a Series S Sensor Chip CM5 (Cytiva 29149603) surface is performed according to the manufacturer's instructions (Amine Coupling Kit BR-1000-50). Briefly, carboxyl groups on the sensor chip surfaces (flow cell 1 and 2) are activated by injecting 70 μL of a mixture containing 75 mg/ml 1-Ethyl-3-(3-dimethylaminopropyl) carbodiimide hydrochloride (EDC), and 11.5 mg/ml N-Hydroxysuccinimide (NHS) at 10 μl/min. Human, cynomolgus monkey, rat, mouse, dog, pig, cow, and rabbit serum albumin are diluted in 10 mM sodium acetate pH 4.0 (BR-1003-49) at 0.8, 0.8, 0.8, 2.5, 0.8, 1, 1, and 1.5 μg/m1 then injected over the activated chip surfaces (flow cell 2, channel 1 to 8) at 10 μl/min for 100 seconds. Human serum albumin was obtained from Sigma Aldrich (St. Louis, Mo.) (Cat. No. A8763).
(§2) The serum albumins are covalently immobilized through free amines onto a carboxymethyl dextran-coated sensor chip CM5 at surface densities of 29-52 resonance units (RU) for human, cynomolgus monkey, rat, mouse, dog, pig, and cow as well as 118 resonance units (RU) for rabbit serum albumin. Excess reactive groups on the surfaces (flow cell 1 and 2) are deactivated by injecting 70 μl of 1 M Ethanolamine hydrochloride-NaOH pH 8.5.
(§3) The antibodies of Examples 1 and 2 (i.e., Antibody I and II, respectively) are diluted in HBS-EP+buffer (10 mM HEPES pH 7.6, 150 mM NaCl, 3 mM EDTA, 0.05% Polysorbate 20) at concentrations of 1000, 333.3, 111.1, 37.04, 12.35, 4.12, 1.37, 0.457, 0.152, 0.051 and 0.017 nM. 180 μl of sample are individually injected sequentially across the immobilized serum albumins on the chip's surface and dissociated for 600 sec at 60 μl/min flow rate at 25° C. The surface is regenerated by injecting 10 mM glycine-HCl pH 1.5 (BR-1003-54) at 60 μl/min for 100 sec. The resulting sensorgrams are analyzed using Biacore 8K Insight Evaluation Software (version 3.0.11.15423) 1:1 binding kinetics model fitting to calculate the binding kinetic parameters: association rate (ka), dissociation rate (kd), and equilibrium dissociation constant (KD).

[2] = target: T2, Pig serum albumin (pig, UniProt P08835 25-607); assay: as above
T2 construct: Bought protein, immobilized on a CM5 chip by amine coupling; also called Pig SA
Protocol: as §1, §2, §3

[3] = target: T3, Cynomolgus monkey serum albumin (cynomolgus monkey, UniProt A2V9Z4 25-608); assay: as above
T3 construct: Bought protein, immobilized on a CM5 chip by amine coupling; also called Cyno SA
Protocol: as §1, §2, §3

[4] = target: T4, Rat serum albumin (rat, UniProt P02770 25-608); assay: as above
T4 construct: Bought protein, immobilized on a CM5 chip by amine coupling; also called Rat SA
Protocol: as §1, §2, §3

[5] = target: T5, Cow serum albumin (cow, UniProt P02769 25-607); assay: as above
T5 construct: Bought protein, immobilized on a CM5 chip by amine coupling; also called Cow SA
Protocol: as §1, §2, §3

[6] = target: T6, Dog serum albumin (dog, UniProt P49822 25-608); assay: as above
T6 construct: Bought protein, immobilized on a CM5 chip by amine coupling; also called Dog SA
Protocol: as §1, §2, §3

[7] = target: T7, Mouse serum albumin (mouse, UniProt P07724 25-608); assay: as above
T7 construct: Bought protein, immobilized on a CM5 chip by amine coupling; also called Mouse SA
Protocol: as §1, §2, §3

[8] = target: T8, human GITR (human, UniProt Q9Y5U5 26-241); assay: cell-based or functional assay
T8 sequence: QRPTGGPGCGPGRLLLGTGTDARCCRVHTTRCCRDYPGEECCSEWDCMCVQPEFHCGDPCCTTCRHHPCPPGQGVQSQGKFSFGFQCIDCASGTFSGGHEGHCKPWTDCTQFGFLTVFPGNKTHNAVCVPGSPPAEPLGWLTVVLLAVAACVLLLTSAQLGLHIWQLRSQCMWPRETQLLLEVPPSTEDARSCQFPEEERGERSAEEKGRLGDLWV

[9] = target: T9, cynomolgus monkey GITR (cynomolgus monkey); assay: flow cytometry on Jurkat cyno GITR/NFkBluc cells, anti-kappa PE detection, geometric mean of 3
T9 construct: whole, on cells; Stood on Jurkat cyno GITR/NFkBluc cells; also called cyno GITR
Protocol: Jurkat human GITR/NFkB-Luc2 and Jurkat cynomolgus monkey GITR/NFkBluc cells are resuspended in FACS buffer (PBS+1% BSA+0.01% sodium azide) at 1 million cells/mL and 5 μl Fc block/mL (BioLegend) is added and incubated at 4° C. for 20 min. Cells are washed with FACS buffer and resuspended at 1e6 cells/mL in FACS buffer and added to a polypropylene 96-well plate at 100 μl/well for 100,000 cells/well. 100 μl/well of 2X antibody dose titrations diluted in FACS buffer are added to cells and incubated 45 minutes at 4° C. Cells are washed twice with 200 μl/well FACS buffer and resuspended in 12.5 μg/mL anti-human Ig light chain kappa/PE secondary antibody (Invitrogen #PA1-74408) in FACS buffer and incubated for 45 minutes at 4° C. Cells are washed twice with 200 μl/well FACS buffer and resuspended in 200 μl FACS buffer. Samples are read on a Millipore EasyCyte Cytometer and median fluorescence intensity values are calculated using GuavaSoft 3.3 InCyte software. EC₅₀ values are calculated for each of 3 experiment replicates and the EC₅₀ Geometric Mean +/−Error (Delta Method) is calculated from these 3 results. The cell binding results shown in Table 5 indicate that both Antibody I and Antibody II bind potently to human GITR and cynomolgus monkey GITR (“cyno GITR”).

[10] = target: T8, human GITR; assay: flow cytometry on Jurkat human GITR/NFkB-Luc2 cells, anti-kappa PE detection, geometric mean of 3
Protocol: Jurkat human GITR/NFkB-Luc2 cells (CS184004) were purchased from Promega and maintained in RPMI1640 media+10% FBS (HyClone SH30070.3)+400 μg/mL hygromycin B+600 μg/mL G418.
Jurkat human GITR/NFkB-Luc2 and Jurkat cynomolgus monkey GITR/NFkBluc cells are resuspended in FACS buffer (PBS+1% BSA+0.01% sodium azide) at 1 million cells/mL and 5 μl Fc block/mL (BioLegend) is added and incubated at 4° C. for 20 min. Cells are washed with FACS buffer and resuspended at 1e6 cells/mL in FACS buffer and added to a polypropylene 96-well plate at 100 μl/well for 100,000 cells/well. 100 μl/well of 2X antibody dose titrations diluted in FACS buffer are added to cells and incubated 45 minutes at 4° C. Cells are washed twice with 200 μl/well FACS buffer and resuspended in 12.5 μg/mL anti-human Ig light chain kappa/PE secondary antibody (Invitrogen #PA1-74408) in FACS buffer and incubated for 45 minutes at 4° C. Cells are washed twice with 200 μl/well FACS buffer and resuspended in 200 μl FACS buffer. Samples are read on a Millipore EasyCyte Cytometer and median fluorescence intensity values are calculated using GuavaSoft 3.3 InCyte software. EC₅₀ values are calculated for each of 3 experiment replicates and the EC₅₀ Geometric Mean +/−Error (Delta Method) is calculated from these 3 results. […]

[11] = target: T9, cynomolgus monkey GITR; assay: cell-based or functional assay
[12] = target: T8, human GITR; assay: cell-based or functional assay; remark: listed apart in the source
[13] = target: T10, Rabbit serum albumin (rabbit, UniProt P49065 25-608); assay: SPR, Biacore 8K, albumin immobilized on CM5, 25 C
T10 construct: Bought protein, immobilized on a CM5 chip by amine coupling at 118 RU; also called Rabbit SA
Protocol: as §1, with “Human serum albumin was obtained from Sigma Aldrich (St. Louis, Mo.) (Cat. No. A8763).” left out
as §3, with “180 μl of sample are individually injected sequentially across the immobilized serum albumins on the chip's surface and dissociated for 600 sec at 60 μl/min flow rate at 25° C. The surface is regenerated by injecting 10 mM glycine-HCl pH 1.5 (BR-1003-54) at 60 μl/min for 100 sec.” left out

[14] = target: T8, human GITR; assay: cell-based or functional assay; remark: listed apart in the source

Kd [1]: 0.25 nM
koff [1]: 6.5e-05 s⁻¹
kon [1]: 260000 M⁻¹ s⁻¹
Kd [2]: 100 nM
koff [2]: 0.013 s⁻¹
kon [2]: 120000 M⁻¹ s⁻¹
Kd [3]: 4.4 nM
koff [3]: 0.00082 s⁻¹
kon [3]: 190000 M⁻¹ s⁻¹
Kd [4]: 44 nM
koff [4]: 0.007 s⁻¹
kon [4]: 160000 M⁻¹ s⁻¹
Kd [5]: 460 nM
koff [5]: 0.091 s⁻¹
kon [5]: 200000 M⁻¹ s⁻¹
Kd [6]: 20 nM
koff [6]: 0.0035 s⁻¹
kon [6]: 170000 M⁻¹ s⁻¹
Kd [7]: 53 nM
koff [7]: 0.0094 s⁻¹
kon [7]: 180000 M⁻¹ s⁻¹
IC50 nM Mean, restoration of regulatory T cell suppression of effector T cell proliferation in the presence of GITRL [8]: 4.69 nM
EC50 [9]: 3.06 nM
EC50 [10]: 6.8 nM
IC50 nM GeoMean, inhibition of GITRL stimulation of Jurkat GITR/NFkB luciferase cells [11]: 2.27 nM
IC50 nM GeoMean, inhibition of GITRL stimulation of Jurkat GITR/NFkB luciferase cells [12]: 4.1 nM
IC50 nM GeoMean, inhibition of GITRL co-stimulation of T cell proliferation [14]: 4.76 nM
B1: Antibody I (Fab)
heavy: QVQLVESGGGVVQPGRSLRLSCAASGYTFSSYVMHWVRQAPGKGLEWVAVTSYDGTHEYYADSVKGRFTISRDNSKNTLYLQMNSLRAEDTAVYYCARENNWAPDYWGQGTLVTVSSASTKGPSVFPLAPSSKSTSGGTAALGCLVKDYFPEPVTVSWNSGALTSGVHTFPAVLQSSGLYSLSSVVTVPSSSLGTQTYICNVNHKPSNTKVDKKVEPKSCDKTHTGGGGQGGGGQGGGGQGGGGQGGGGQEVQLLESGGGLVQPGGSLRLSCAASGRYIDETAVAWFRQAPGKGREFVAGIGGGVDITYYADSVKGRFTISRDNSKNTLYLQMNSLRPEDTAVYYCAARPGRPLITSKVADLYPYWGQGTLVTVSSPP
light: DIQMTQSPSSLSASVGDRVTITCRASQDISNSLAWYQQKPGKAPKRLIYAAFSLQSGVPSRFSGSGSGTEFTLTISSLQPEDFATYYCYQYYNYPSAFGQGTKLEIKRTVAAPSVFIFPPSDEQLKSGTASVVCLLNNFYPREAKVQWKVDNALQSGNSQESVTEQDSKDSTYSLSSTLTLSKADYEKHKVYACEVTHQGLSSPVTKSFNRGEC
notes: Monovalent anti-GITR Fab; also called HC anti-GITR Fab-VHH Fusion 1 with LC
binding result [13]: no binding (tested: 1000 nM highest concentration tested)

Kd [1]: 0.4 nM
koff [1]: 7.8e-05 s⁻¹
kon [1]: 190000 M⁻¹ s⁻¹
Kd [2]: 99 nM
koff [2]: 0.012 s⁻¹
kon [2]: 120000 M⁻¹ s⁻¹
Kd [3]: 5.9 nM
koff [3]: 0.00087 s⁻¹
kon [3]: 150000 M⁻¹ s⁻¹
Kd [4]: 51 nM
koff [4]: 0.0073 s⁻¹
kon [4]: 140000 M⁻¹ s⁻¹
Kd [5]: 430 nM
koff [5]: 0.087 s⁻¹
kon [5]: 200000 M⁻¹ s⁻¹
Kd [6]: 20 nM
koff [6]: 0.0034 s⁻¹
kon [6]: 170000 M⁻¹ s⁻¹
Kd [7]: 42 nM
koff [7]: 0.0096 s⁻¹
kon [7]: 230000 M⁻¹ s⁻¹
IC50 nM Mean, restoration of regulatory T cell suppression of effector T cell proliferation in the presence of GITRL [8]: 2.72 nM
EC50 [9]: 2.34 nM
EC50 [10]: 3.25 nM
IC50 nM GeoMean, inhibition of GITRL stimulation of Jurkat GITR/NFkB luciferase cells [11]: 1.26 nM
IC50 nM GeoMean, inhibition of GITRL stimulation of Jurkat GITR/NFkB luciferase cells [12]: 1.68 nM
IC50 nM GeoMean, inhibition of GITRL co-stimulation of T cell proliferation [14]: 1.84 nM
B2: Antibody II (Fab)
heavy: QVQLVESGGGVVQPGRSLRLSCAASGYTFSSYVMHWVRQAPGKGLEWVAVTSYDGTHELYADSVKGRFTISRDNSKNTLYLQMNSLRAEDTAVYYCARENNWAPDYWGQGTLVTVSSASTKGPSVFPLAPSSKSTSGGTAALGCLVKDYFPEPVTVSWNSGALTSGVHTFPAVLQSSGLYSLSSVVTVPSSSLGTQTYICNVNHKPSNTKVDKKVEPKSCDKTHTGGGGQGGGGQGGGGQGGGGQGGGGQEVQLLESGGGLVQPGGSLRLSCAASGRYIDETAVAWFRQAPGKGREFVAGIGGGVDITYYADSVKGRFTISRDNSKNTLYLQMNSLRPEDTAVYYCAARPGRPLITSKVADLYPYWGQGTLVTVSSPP
light: B1 light
notes: Monovalent anti-GITR Fab; also called HC anti-GITR Fab-VHH Fusion 2 with LC
binding result [13]: no binding (tested: 1000 nM highest concentration tested)
